T1: APBA3_1, O96018
T1 sequence (O96018 389-490, limits assumed, looked up): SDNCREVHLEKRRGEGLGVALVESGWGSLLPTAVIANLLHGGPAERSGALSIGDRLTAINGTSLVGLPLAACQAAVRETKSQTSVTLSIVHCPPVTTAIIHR

T2: TX1BP3, O14907
T2 sequence (O14907 10-122, limits assumed, looked up): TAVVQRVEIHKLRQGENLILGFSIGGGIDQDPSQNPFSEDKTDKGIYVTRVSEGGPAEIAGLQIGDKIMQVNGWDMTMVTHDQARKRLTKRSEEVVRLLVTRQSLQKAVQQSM

T3: GRIP1_3, Q9Y3R0
T3 sequence (Q9Y3R0 247-346, limits assumed, looked up): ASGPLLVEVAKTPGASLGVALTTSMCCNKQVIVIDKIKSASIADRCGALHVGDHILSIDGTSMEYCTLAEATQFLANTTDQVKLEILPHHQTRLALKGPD

T4: SNTB1, Q13884
T4 sequence (Q13884 107-205, limits assumed, looked up): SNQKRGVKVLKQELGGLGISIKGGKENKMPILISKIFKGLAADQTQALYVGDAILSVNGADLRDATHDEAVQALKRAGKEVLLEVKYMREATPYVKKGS

T5: PDZRN3_1, Q9UPQ7
T5 sequence (Q9UPQ7 244-349, limits assumed, looked up): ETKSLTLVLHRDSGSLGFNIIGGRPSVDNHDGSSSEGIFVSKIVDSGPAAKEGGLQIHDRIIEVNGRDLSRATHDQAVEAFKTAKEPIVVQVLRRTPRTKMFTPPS

T6: DFNB31_1, Q9P202
T6 sequence (Q9P202 135-233, limits assumed, looked up): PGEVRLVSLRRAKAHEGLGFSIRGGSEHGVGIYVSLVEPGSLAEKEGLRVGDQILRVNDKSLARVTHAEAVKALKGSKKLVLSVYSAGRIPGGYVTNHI

T7: RADIL, Q96JH8
T7 sequence (Q96JH8 971-1071, limits assumed, looked up): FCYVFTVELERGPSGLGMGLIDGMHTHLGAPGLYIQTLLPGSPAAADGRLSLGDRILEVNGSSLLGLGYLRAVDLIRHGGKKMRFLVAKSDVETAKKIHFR

T8: GRIP1_5, Q9Y3R0
T8 sequence (Q9Y3R0 568-668, limits assumed, looked up): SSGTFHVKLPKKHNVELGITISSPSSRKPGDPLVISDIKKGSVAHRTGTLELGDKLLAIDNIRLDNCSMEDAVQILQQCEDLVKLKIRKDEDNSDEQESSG


The binders below were run against IL16_4, Q14005 (assay: holdup assay). Conditions: plain residues with an end cap or a label only (N-terminal biotin on a linker: ado-ado).
IL16_4, Q14005, sequence (Q14005 1229-1329): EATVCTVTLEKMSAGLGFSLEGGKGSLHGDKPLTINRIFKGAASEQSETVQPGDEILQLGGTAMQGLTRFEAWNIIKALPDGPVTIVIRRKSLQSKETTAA
Parameters: key: below the threshold = too weak to quantify, mostly under pKd 3.1 to 4
For DSEEELPTRL [GRK6, P43250], the pKd was “below the threshold”.

Each binder was assayed against GIPC2, Q8TF65 (assay: holdup assay). Conditions: plain residues with an end cap or a label only (N-terminal biotin on a linker: ado-ado).
GIPC2, Q8TF65, sequence (Q8TF65 112-203): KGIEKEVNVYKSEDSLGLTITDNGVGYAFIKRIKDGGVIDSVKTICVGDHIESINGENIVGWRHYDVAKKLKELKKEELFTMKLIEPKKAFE
Parameters: key: below the threshold = too weak to quantify, mostly under pKd 3.1 to 4
In the case of DSEEELPTRL [GRK6, P43250], the pKd is reported as 3.65.

Each binder was assayed against DLG4_3, P78352 (assay: holdup assay). Conditions: plain residues with an end cap or a label only (N-terminal biotin on a linker: ado-ado).
DLG4_3, P78352, sequence (P78352 306-403): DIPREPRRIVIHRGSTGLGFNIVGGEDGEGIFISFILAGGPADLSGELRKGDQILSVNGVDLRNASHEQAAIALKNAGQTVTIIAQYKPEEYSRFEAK
Parameters: key: below the threshold = too weak to quantify, mostly under pKd 3.1 to 4
With DSEEELPTRL [GRK6, P43250] the pKd was “below the threshold”.

The binders below were run against LNX1_1, Q8TBB1 (assay: holdup assay). Conditions: plain residues with an end cap or a label only (N-terminal biotin on a linker: ado-ado).
LNX1_1, Q8TBB1, sequence (Q8TBB1 261-371): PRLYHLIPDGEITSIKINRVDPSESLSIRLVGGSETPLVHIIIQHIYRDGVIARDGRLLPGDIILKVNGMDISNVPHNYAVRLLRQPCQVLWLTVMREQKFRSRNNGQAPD
Parameters: key: below the threshold = too weak to quantify, mostly under pKd 3.1 to 4
DSEEELPTRL [GRK6, P43250] showed a pKd of 3.82.

These binders were tested against FRMPD4, Q14CM0 (assay: holdup assay). Conditions: plain residues with an end cap or a label only (N-terminal biotin on a linker: ado-ado).
FRMPD4, Q14CM0, sequence (Q14CM0 67-160): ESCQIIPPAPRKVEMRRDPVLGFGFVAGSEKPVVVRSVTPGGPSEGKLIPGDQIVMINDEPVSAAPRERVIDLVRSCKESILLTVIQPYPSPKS
Parameters: key: below the threshold = too weak to quantify, mostly under pKd 3.1 to 4
DSEEELPTRL [GRK6, P43250] gave a pKd of 4.39.

The binders below were run against T1, APBA3_1, O96018 (assay: holdup assay). Conditions: plain residues with an end cap or a label only (N-terminal biotin on a linker: ado-ado).
Parameters: key: below the threshold = too weak to quantify, mostly under pKd 3.1 to 4
With DSEEELPTRL [GRK6, P43250] the pKd was “below the threshold”.

Each binder was assayed against T2, TX1BP3, O14907 (assay: holdup assay). Conditions: plain residues with an end cap or a label only (N-terminal biotin on a linker: ado-ado).
Parameters: key: below the threshold = too weak to quantify, mostly under pKd 3.1 to 4
For DSEEELPTRL [GRK6, P43250], the pKd was “below the threshold”.

These binders were tested against T3, GRIP1_3, Q9Y3R0 (assay: holdup assay). Conditions: plain residues with an end cap or a label only (N-terminal biotin on a linker: ado-ado).
Parameters: key: below the threshold = too weak to quantify, mostly under pKd 3.1 to 4
In the case of DSEEELPTRL [GRK6, P43250], the pKd is reported as “below the threshold”.

The binders below were run against PDZRN4_1, Q6ZMN7 (assay: holdup assay). Conditions: plain residues with an end cap or a label only (N-terminal biotin on a linker: ado-ado).
PDZRN4_1, Q6ZMN7, sequence (Q6ZMN7 213-318): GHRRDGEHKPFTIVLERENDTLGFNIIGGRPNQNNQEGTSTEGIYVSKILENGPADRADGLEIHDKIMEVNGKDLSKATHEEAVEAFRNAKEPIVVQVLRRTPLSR
Parameters: key: below the threshold = too weak to quantify, mostly under pKd 3.1 to 4
For DSEEELPTRL [GRK6, P43250], the pKd was “below the threshold”.

Each binder was assayed against GRIP2_7, Q9C0E4 (assay: holdup assay). Conditions: plain residues with an end cap or a label only (N-terminal biotin on a linker: ado-ado).
GRIP2_7, Q9C0E4, sequence (Q9C0E4 934-1023): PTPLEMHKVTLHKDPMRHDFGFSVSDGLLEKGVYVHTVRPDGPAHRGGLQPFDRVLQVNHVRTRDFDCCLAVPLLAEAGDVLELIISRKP
Parameters: key: below the threshold = too weak to quantify, mostly under pKd 3.1 to 4
For DSEEELPTRL [GRK6, P43250], the pKd was “below the threshold”.

What follows are binders tested against GRIP2_4, Q9C0E4 (assay: holdup assay). Conditions: plain residues with an end cap or a label only (N-terminal biotin on a linker: ado-ado).
GRIP2_4, Q9C0E4, sequence (Q9C0E4 446-548): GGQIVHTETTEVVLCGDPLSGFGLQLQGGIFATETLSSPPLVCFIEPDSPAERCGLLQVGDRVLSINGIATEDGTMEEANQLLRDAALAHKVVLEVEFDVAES
Parameters: key: below the threshold = too weak to quantify, mostly under pKd 3.1 to 4
DSEEELPTRL [GRK6, P43250] was tested, and the pKd was “below the threshold”.

These binders were tested against SNX27, Q96L92 (assay: holdup assay). Conditions: plain residues with an end cap or a label only (N-terminal biotin on a linker: ado-ado).
Parameters: key: below the threshold = too weak to quantify, mostly under pKd 3.1 to 4
Binder DSEEELPTRL [GRK6, P43250] has a pKd of 3.85.

What follows are binders tested against LNX1_2, Q8TBB1 (assay: holdup assay). Conditions: plain residues with an end cap or a label only (N-terminal biotin on a linker: ado-ado).
LNX1_2, Q8TBB1, sequence (Q8TBB1 371-470): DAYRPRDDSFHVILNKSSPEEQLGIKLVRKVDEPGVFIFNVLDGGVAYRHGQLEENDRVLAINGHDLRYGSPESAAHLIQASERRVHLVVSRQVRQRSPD
Parameters: key: below the threshold = too weak to quantify, mostly under pKd 3.1 to 4
For DSEEELPTRL [GRK6, P43250], the pKd was “below the threshold”.

These binders were tested against T4, SNTB1, Q13884 (assay: holdup assay). Conditions: plain residues with an end cap or a label only (N-terminal biotin on a linker: ado-ado).
Parameters: key: below the threshold = too weak to quantify, mostly under pKd 3.1 to 4
In the case of DSEEELPTRL [GRK6, P43250], the pKd is reported as “below the threshold”.

Each binder was assayed against T5, PDZRN3_1, Q9UPQ7 (assay: holdup assay). Conditions: plain residues with an end cap or a label only (N-terminal biotin on a linker: ado-ado).
Parameters: key: below the threshold = too weak to quantify, mostly under pKd 3.1 to 4
In the case of DSEEELPTRL [GRK6, P43250], the pKd is reported as “below the threshold”.

The binders below were run against GORASP1, Q9BQQ3 (assay: holdup assay). Conditions: plain residues with an end cap or a label only (N-terminal biotin on a linker: ado-ado).
GORASP1, Q9BQQ3, sequence (Q9BQQ3 1-208): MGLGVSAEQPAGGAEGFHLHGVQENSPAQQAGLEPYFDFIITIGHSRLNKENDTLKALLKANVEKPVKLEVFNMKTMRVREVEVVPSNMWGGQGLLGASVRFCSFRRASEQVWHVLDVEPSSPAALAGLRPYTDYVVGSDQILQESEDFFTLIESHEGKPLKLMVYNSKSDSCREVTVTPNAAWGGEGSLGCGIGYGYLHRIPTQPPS
Parameters: key: below the threshold = too weak to quantify, mostly under pKd 3.1 to 4
In the case of DSEEELPTRL [GRK6, P43250], the pKd is reported as “below the threshold”.

What follows are binders tested against MAGI1_1, Q96QZ7 (assay: holdup assay). Conditions: plain residues with an end cap or a label only (N-terminal biotin on a linker: ado-ado).
MAGI1_1, Q96QZ7, sequence (Q96QZ7 1-106): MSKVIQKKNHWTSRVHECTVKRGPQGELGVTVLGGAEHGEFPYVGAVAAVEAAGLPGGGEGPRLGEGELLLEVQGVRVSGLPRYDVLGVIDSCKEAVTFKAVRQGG
Parameters: key: below the threshold = too weak to quantify, mostly under pKd 3.1 to 4
DSEEELPTRL [GRK6, P43250] was tested, and the pKd was “below the threshold”.

These binders were tested against Inadl_1, Q8NI35 (assay: holdup assay). Conditions: plain residues with an end cap or a label only (N-terminal biotin on a linker: ado-ado).
Inadl_1, Q8NI35, sequence (Q8NI35 113-229): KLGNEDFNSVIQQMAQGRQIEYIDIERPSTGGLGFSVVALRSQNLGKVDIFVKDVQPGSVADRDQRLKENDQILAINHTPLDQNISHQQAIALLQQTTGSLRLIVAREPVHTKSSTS
Parameters: key: below the threshold = too weak to quantify, mostly under pKd 3.1 to 4
With DSEEELPTRL [GRK6, P43250] the pKd was “below the threshold”.

These binders were tested against MAGI2_5, Q86UL8 (assay: holdup assay). Conditions: plain residues with an end cap or a label only (N-terminal biotin on a linker: ado-ado).
MAGI2_5, Q86UL8, sequence (Q86UL8 915-1017): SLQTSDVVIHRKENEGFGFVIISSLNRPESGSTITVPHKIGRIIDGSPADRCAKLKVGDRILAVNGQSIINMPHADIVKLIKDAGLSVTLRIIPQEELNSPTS
Parameters: key: below the threshold = too weak to quantify, mostly under pKd 3.1 to 4
DSEEELPTRL [GRK6, P43250] was tested, and the pKd was “below the threshold”.

Each binder was assayed against MAGI1_2, Q96QZ7 (assay: holdup assay). Conditions: plain residues with an end cap or a label only (N-terminal biotin on a linker: ado-ado).
MAGI1_2, Q96QZ7, sequence (Q96QZ7 456-580): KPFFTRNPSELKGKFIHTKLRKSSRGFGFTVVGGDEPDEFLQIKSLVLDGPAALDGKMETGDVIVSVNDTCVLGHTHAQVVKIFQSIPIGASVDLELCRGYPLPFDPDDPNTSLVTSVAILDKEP
Parameters: key: below the threshold = too weak to quantify, mostly under pKd 3.1 to 4
With DSEEELPTRL [GRK6, P43250] the pKd was “below the threshold”.

What follows are binders tested against T6, DFNB31_1, Q9P202 (assay: holdup assay). Conditions: plain residues with an end cap or a label only (N-terminal biotin on a linker: ado-ado).
Parameters: key: below the threshold = too weak to quantify, mostly under pKd 3.1 to 4
DSEEELPTRL [GRK6, P43250] was tested, and the pKd was “below the threshold”.

The binders below were run against Inadl_6, Q8NI35 (assay: holdup assay). Conditions: plain residues with an end cap or a label only (N-terminal biotin on a linker: ado-ado).
Inadl_6, Q8NI35, sequence (Q8NI35 1058-1167): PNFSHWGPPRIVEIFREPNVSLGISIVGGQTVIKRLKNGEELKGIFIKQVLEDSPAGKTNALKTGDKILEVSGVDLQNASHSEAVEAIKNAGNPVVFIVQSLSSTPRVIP
Parameters: key: below the threshold = too weak to quantify, mostly under pKd 3.1 to 4
For DSEEELPTRL [GRK6, P43250], the pKd was “below the threshold”.

The binders below were run against SCRIB_3, Q14160 (assay: holdup assay). Conditions: plain residues with an end cap or a label only (N-terminal biotin on a linker: ado-ado).
SCRIB_3, Q14160, sequence (Q14160 999-1103): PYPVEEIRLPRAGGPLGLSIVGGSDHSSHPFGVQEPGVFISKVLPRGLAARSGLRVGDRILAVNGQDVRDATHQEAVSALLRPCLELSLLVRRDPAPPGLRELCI
Parameters: key: below the threshold = too weak to quantify, mostly under pKd 3.1 to 4
In the case of DSEEELPTRL [GRK6, P43250], the pKd is reported as 3.53.

These binders were tested against T7, RADIL, Q96JH8 (assay: holdup assay). Conditions: plain residues with an end cap or a label only (N-terminal biotin on a linker: ado-ado).
Parameters: key: below the threshold = too weak to quantify, mostly under pKd 3.1 to 4
With DSEEELPTRL [GRK6, P43250] the pKd was “below the threshold”.

What follows are binders tested against T8, GRIP1_5, Q9Y3R0 (assay: holdup assay). Conditions: plain residues with an end cap or a label only (N-terminal biotin on a linker: ado-ado).
Parameters: key: below the threshold = too weak to quantify, mostly under pKd 3.1 to 4
DSEEELPTRL [GRK6, P43250] was tested, and the pKd was “below the threshold”.

These binders were tested against LNX1_3, Q8TBB1 (assay: holdup assay). Conditions: plain residues with an end cap or a label only (N-terminal biotin on a linker: ado-ado).
LNX1_3, Q8TBB1, sequence (Q8TBB1 500-596): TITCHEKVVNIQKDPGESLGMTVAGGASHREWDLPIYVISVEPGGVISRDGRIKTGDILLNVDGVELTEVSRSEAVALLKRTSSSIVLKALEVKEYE
Parameters: key: below the threshold = too weak to quantify, mostly under pKd 3.1 to 4
With DSEEELPTRL [GRK6, P43250] the pKd was “below the threshold”.

Each binder was assayed against MAGI2_6, Q86UL8 (assay: holdup assay). Conditions: plain residues with an end cap or a label only (N-terminal biotin on a linker: ado-ado).
MAGI2_6, Q86UL8, sequence (Q86UL8 1141-1229): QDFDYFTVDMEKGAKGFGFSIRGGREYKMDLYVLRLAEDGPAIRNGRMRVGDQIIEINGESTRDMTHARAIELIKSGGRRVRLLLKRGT
Parameters: key: below the threshold = too weak to quantify, mostly under pKd 3.1 to 4
In the case of DSEEELPTRL [GRK6, P43250], the pKd is reported as “below the threshold”.

The binders below were run against PICK1, Q9NRD5 (assay: holdup assay). Conditions: plain residues with an end cap or a label only (N-terminal biotin on a linker: ado-ado).
PICK1, Q9NRD5, sequence (Q9NRD5 17-115): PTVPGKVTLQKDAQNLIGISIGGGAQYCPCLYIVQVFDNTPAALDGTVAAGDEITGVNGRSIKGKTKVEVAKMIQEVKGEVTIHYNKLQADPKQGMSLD
Parameters: key: below the threshold = too weak to quantify, mostly under pKd 3.1 to 4
DSEEELPTRL [GRK6, P43250] showed a pKd of 4.25.

Each binder was assayed against DLG5_1, Q8TDM6 (assay: holdup assay). Conditions: plain residues with an end cap or a label only (N-terminal biotin on a linker: ado-ado).
DLG5_1, Q8TDM6, sequence (Q8TDM6 617-713): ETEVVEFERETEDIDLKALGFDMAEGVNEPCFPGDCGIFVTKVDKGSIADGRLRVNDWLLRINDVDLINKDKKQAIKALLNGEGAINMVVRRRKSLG
Parameters: key: below the threshold = too weak to quantify, mostly under pKd 3.1 to 4
In the case of DSEEELPTRL [GRK6, P43250], the pKd is reported as “below the threshold”.

— PMC9482650, “Quantitative fragmentomics allow affinity mapping of interactomes” (Nature Communications, 2022)
